For the test, the target named is T1, Biotinylated human TSLP (human, biotinylated).
T1 construct: also called hTSLP; thymic stromal lymphopoietin
Nature of the test: SPR, biotinylated hTSLP on streptavidin chip. On the technique in general: Surface plasmon resonance follows binding to a sensor surface in real time, without labels.

*1 amine or outer side, *2 acyl side, *3 side chain or, on linkers, in order; H or OH if unused. Bridges are numbered along the chain shown (N, C = ends). Where no end group is shown, it is not given here. [ ]: non-standard residue; d: D form. Phe(4-OMe) = 4-methoxy-phenylalanine (4-MeOPhe) = O-methyl-tyrosine, COc1ccc(C[C@H](N[*:1])C(=O)[*:2])cc1; TATA = O=C(CC[*:1])N1CN(C(=O)CC[*:2])CN(C(=O)CC[*:3])C1; Abu(4,4,4-F3) = N[C@@H](CC(F)(F)F)C(=O)O; Orn = NCCC[C@H](N)C(=O)O

T1 sequence (chain, as listed by the source limits assumed): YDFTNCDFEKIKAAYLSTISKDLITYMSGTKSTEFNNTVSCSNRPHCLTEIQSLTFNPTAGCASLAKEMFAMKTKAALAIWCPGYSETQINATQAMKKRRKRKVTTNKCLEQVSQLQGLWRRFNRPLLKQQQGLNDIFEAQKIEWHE

By Kd is commonly meant the concentration at which binding is half-saturated. Read a low Kd as a tighter complex. On to Ac-CDWLEDCWRGFCTTS (linker 1-7-12 via TATA; not fully specified (C-terminus)) [Example 100], for which binding was characterised by a dissociation constant (Kd) of 160 nM. This lies in the sub-micromolar range.
In turn, CHWLENCWXGFC (not fully specified; N-term acetyl; CHWLENCW[Dap]GFC as printed; 3 Cys on TATA) [Example 159] registered a Kd of 5600 nM.
Under ACDWQWSYDCWLPCA (linker 2-10-14 via TATA) [Example 196] stands 6100 nM.
Turning to ACEWLEDCWRGFCA (linker 2-8-13 via TATA; not fully specified (C-terminus)) [Example 101], the dissociation constant (Kd) was 160 nM.
Under ACDWVWEYDCWLPCA (linker 2-10-14 via TATA) [Example 197] stands 460 nM; under C[Orn]ELDPWTCETWWLC (linker 1-9-15 via TATA) [Example 180], 300 nM.
CQWLEDCWRGXC (N-term acetyl; CQWLEDCWRG[2ThienylA]C as printed; 3 Cys on TATA) [Example 135] yielded a Kd of 490 nM. Compared with the last molecule, the Kd is about 1.6-fold higher.
CTELDXWTCETWWLC (CTELD[Chx-P]WTCETWWLC as printed; 3 Cys on TATA) [Example 195] came in with a Kd of 15000 nM. Against the preceding molecule, the Kd is about 31-fold higher.
CTELDXWTCETWWLC (CTELD[5-Ph-P]WTCETWWLC as printed; 3 Cys on TATA) [Example 194] gave a Kd of 290 nM.
Under SHVCRDLDPWTCDSWWLCA (linker 4-12-18 via TATA) [Example 188] stands 72 nM; under Ac-CQWLEDCWAGFC (linker 1-7-12 via TATA) [Example 149], 1100 nM; under RDLCTDLDPWTCPDWWLCA (linker 4-12-18 via TATA) [Example 189], 310 nM.
Under ACVDLDPWSCEDWWLCA (linker 2-10-16 via TATA) [Example 183] stands 330 nM; under ACEWLEDCWKGFCHSE (linker 2-8-13 via TATA) [Example 136], 520 nM; under ACDWDWEYDCWLHCA (linker 2-10-14 via TATA) [Example 198], 290 nM.
Under ACRDLDPWTCPTWWTCYDE (linker 2-10-16 via TATA; not fully specified (C-terminus)) [Example 168] stands 290 nM; under ACRDLDPWTCEEWWLCAHP (linker 2-10-16 via TATA) [Example 170], 170 nM; under CTELDXWTCETWWLC (CTELD[diF-P]WTCETWWLC as printed; 3 Cys on TATA) [Example 182], 1300 nM.
For CQWLEDCWRGFCDTSTHS (linker 1-7-12 via TATA; not fully specified (C-terminus)) [Example 128], binding was characterised by a dissociation constant (Kd) of 380 nM. Against the preceding molecule, the Kd is about 3.4-fold lower.

B1: Example 105 (peptide)
peptide: CQWLXDCWRGXC
modifications: not fully specified; N-term acetyl; CQWL[3-ClPhe]DCWRG[4-FPhe]C as printed; 3 Cys on TATA
Molecule B1 yielded a Kd of 180 nM.
Under CWWLXDCWRGXC (N-term acetyl; CWWL[3-ClPhe]DCWRG[4-FPhe]C as printed; 3 Cys on TATA) [Example 144] stands 860 nM.
Under ACRDLDPWTCSSWWLCSSDTTDA (linker 2-10-16 via TATA) [Example 176] stands 300 nM.
Under CQWLQDCFRGXC (N-term acetyl; CQWLQDCFRG[4-FPhe]C as printed; 3 Cys on TATA) [Example 118] stands 250 nM; under Ac-CQW[Abu(4,4,4-F3)]EDCWRGFC (linker 1-7-12 via TATA; not fully specified (C-terminus)) [Example 111], 200 nM.
For CQWLEDCWXGFC (not fully specified; N-term acetyl; CQWLEDCW[Dap]GFC as printed; 3 Cys on TATA) [Example 155], binding was characterised by a dissociation constant (Kd) of 3200 nM.
Under ACRDLDPWTCSSWWLCADGLYDA (linker 2-10-16 via TATA) [Example 193] stands 50 nM.
Under ACRDLDPWTCSSWWLCSESVHTA (linker 2-10-16 via TATA) [Example 175] stands 240 nM; under CQWLEDCWXGFC (N-term acetyl; CQWLEDCW[Can]GFC as printed; 3 Cys on TATA) [Example 131], 400 nM.
Under ACFWLEDCWRGYCETA (linker 2-8-13 via TATA) [Example 138] stands 520 nM.
For ACKDLDPWTCSSWWECAPN (linker 2-10-16 via TATA; not fully specified (C-terminus)) [Example 167], the Kd is 170 nM.
For the molecule CQWLEDCWXGFC (not fully specified; CQWLEDCW[Dap]GFC as printed; 3 Cys on TATA) [Example 156], the Kd is 3300 nM.
Molecule RAPCPDLDPWTCSDWWLCA (linker 4-12-18 via TATA) [Example 187] returned a dissociation constant Kd of 86 nM.
Under CQWLEDCWRGXC (N-term acetyl; CQWLEDCWRG[3-CNPhe]C as printed; 3 Cys on TATA) [Example 130] stands 400 nM.
Under RVNTHQCRDLDPWTCSSWWLCA (linker 7-15-21 via TATA) [Example 190] stands 81 nM.
Under ACTELDPWTCETWWLCA (linker 2-10-16 via TATA; not fully specified (C-terminus)) [Example 163] stands 230 nM; under Ac-CQWLEDCWRG[Phe(4-OMe)]C (linker 1-7-12 via TATA) [Example 142], 710 nM.
In turn, ACTDLDPWTCNSWWLCAGD (linker 2-10-16 via TATA; not fully specified (C-terminus)) [Example 169] came in with a Kd of 290 nM.
Under CQWLEDCWXGFC (not fully specified; N-term acetyl; CQWLEDCW[Cit]GFC as printed; 3 Cys on TATA) [Example 104] stands 180 nM; under ACESLDPWSCPVWWRCA (linker 2-10-16 via TATA; not fully specified (C-terminus)) [Example 161], 890 nM; under AHPCADLDPWTCPNWWLCA (linker 4-12-18 via TATA; not fully specified (C-terminus)) [Example 165], 30 nM.
Under RENCRWLDDCWQGFCA (linker 4-10-15 via TATA) [Example 117] stands 250 nM.
Under ACNWLEDCWHGFCHEE (linker 2-8-13 via TATA; not fully specified (C-terminus)) [Example 125] stands 300 nM; under ACDWLDDCWKGFCA (linker 2-8-13 via TATA) [Example 141], 600 nM.
With ACRDLDPWTCSSWWLCKPDHVDA (linker 2-10-16 via TATA) [Example 177], binding was characterised by a dissociation constant (Kd) of 580 nM.
Under CQWXEDCWRGFC (N-term acetyl; CQW[M(O)]EDCWRGFC as printed; 3 Cys on TATA) [Example 147] stands 940 nM; under CQXLEDCWXGXC (N-term acetyl; CQ[ButG]LEDCW[ButG]G[4-FPhe]C as printed; 3 Cys on TATA) [Example 145], 900 nM; under CKELDPWTCETWWLC (linker 1-9-15 via TATA) [Example 179], 360 nM.
For the molecule CQELDPWTCETWWLC (linker 1-9-15 via TATA) [Example 181], binding was put at a Kd of 310 nM. This Kd and that of the molecule before are within 1.5-fold of each other.
Take CHWLEDCWRGXC (N-term acetyl; CHWLEDCWRG[4-FPhe]C as printed; 3 Cys on TATA) [Example 19]: binding was put at a Kd of 6.7 nM. This Kd lies about 46-fold lower than the previous one.
Under CQWLFDCWRGXC (N-term acetyl; CQWLFDCWRG[4-FPhe]C as printed; C-terminal -COOH; 3 Cys on TATA) [Example 39] stands 21 nM.

B2: Example 126 (peptide)
peptide: CAWLEDCWRGXC
modifications: not fully specified; N-term acetyl; C[dA]WLEDCWRG[4-FPhe]C as printed; 3 Cys on TATA
In turn, B2 showed a Kd of 310 nM.

B3: Example 43 (peptide)
peptide: CQWLFDCWRGXC
modifications: not fully specified; N-term acetyl; CQWLFDCWRG[4-FPhe]C as printed; 3 Cys on TATA
In turn, B3 gave a Kd of 30 nM.
Under CQWIEDCWRGXC (N-term acetyl; CQWIEDCWRG[4-FPhe]C as printed; 3 Cys on TATA) [Example 57] stands 51 nM.

B4: Example 23 (peptide)
peptide: CQWLENCWRGXC
modifications: not fully specified; N-term acetyl; CQWLENCWRG[4-FPhe]C as printed; 3 Cys on TATA
Consider B4, for which binding was characterised by a dissociation constant (Kd) of 9.9 nM.
Under CQWLEDCWXGFC (not fully specified; CQWLEDCW[Cit]GFC as printed; 3 Cys on TATA) [Example 102] stands 170 nM; under CQWLEDCWRGXC (N-term acetyl; CQWLEDCWRG[3-BrPhe]C as printed; 3 Cys on TATA) [Example 143], 750 nM.

These data come from patent US20220363718A1 (Bicycle, published 2022).
